Laboratory results from the DeepSol protein solubility set.

Experiment: soluble on expression in E. coli; label from the status in PepcDB or PDB records

| Sequence | soluble on expression in E. coli |
| --- | --- |
| IRVNTNKGGGVWESGAANSQSTSWGSGNGANSGGSRRGWGTPAQNTGTNLPSVEWNKLPSNQHSNDSANGNGKTFTNGWKSTEEEDQGSATSQTNEQSSVWAKTGGTVESDGSTESTGRLEEKGTGESQSRDRRKIDQHTLLQSIVNRTDLDPRVLSNSGWGQTPIKQNTAWDTETSPRGERKTDNGTEAWGSSATQTFNSGACIDKTSPNGNDTSSVSGWGDPKPALRWGDSKGSNCQGGWEDDSAATGMVKSNQWGNCKEEKAAWNDSQKNKQGWGDGQKSSQGWSVSASDNWGETSRNNHWGEANKKSSSGGSDSDRSVSGWNELGKTSSFTWGNNINPNNSSGWDESSKPTPSQGWGDPPKSNQSLGWGDSSKPVSSPDWNKQQDIVGSWGIPPATGKPPGTGWLGGPIPAPAKEEEPTGWEEPSPESIRRKMEIDDGTSAWGDPSKYNYKNVNMWNKNVPNGNSRSDQQAQVHQLLTPASAISNKEASSGSGWGEPWGEPSTPATTVDNGTSAWGKPIDSGPSWGEPIAAASSTSTWGSSSVGPQALSKSGPKSMQDGWCGDDMPLPGNRPTGWEEEEDVEIGMWNSNSSQELNSSLNWPPYTKKMSSKGLSGKKRRRERGMMKGGNKQEEAWINPFVKQFSNISFSRDSPEENVQSNKMDLSGGMLQDKRMEIDKHSLNIGDYNRTVGKGPGSRPQISKESSMERNPYFDKDGIVADESQNMQFMSSQSMKLPPSNSALPNQALGSIAGLGMQNLNSVRQNGNPSMFGVGNTAAQPRGMQQPPAQPLSSSQPNLRAQVPPPLLSPQVPVSLLKYAPNNGGLNPLFGPQQVAMLNQLSQLNQLSQISQLQRLLAQQQRAQSQRSVPSGNRPQQDQQGRPLSVQQQMMQQSRQLDPNLLVKQQTPPSQQQPLHQPAMKSFLDNVMPHTTPELQKGPSPINAFSNFPIGLNSNLNVNMDMNSIKEPQSRLRKWTTVDSISVNTSLDQNSSKHGAISSGFRLEESPFVPYDFMNSSTSPASPPGSIGDGWPRAKSPNGSSSVNWPPEFRPGEPWKGYPNIDPETDPYVTPGSVINNLSINTVREVDHLRDRNSGSSSSLNTTLPSTSAWSSIRASNYNVPLSSTAQSTSARNSDSKLTWSPGSVTNTSLAHELWKVPLPPKNITAPSRPPPGLTGQKPPLSTWDNSPLRIGGGWGNSDARYTPGSSWGESSSGRITNWLVLKNLTPQIDGSTLRTLCMQHGPLITFHLNLPHGNALVRYSSKEEVVKAQKSLHMCVLGNTTILAEFASEEEISRFFAQSQSLTPSPGWQSLGSSQSRLGSLDCSHSFSSRTDLNHWNGAGLSGTNCGDLHGTSLWGTPHYSTSLWGPPSSSDPRGISSPSPINAFLSVDHLGGGGESM | soluble |
| ISSEQDAINNRFLPTTDRFSERGSYGNFNYAAYQPEAAIGGEKNPLIVWLHGIGEVGTDINIPLLASNVARLTEDPIQSHFTSTGSGGQKGAYVLVPQSSIPWSQNQTASLMALIKAYVASHPDIDSRRIYLAGVSNGGGMTLDMGVAYPNYFAALVPIAASYSNQLTDNQITAAALKALKGQPMWLIHTRTDKTISADSSVLPFYKELLQAGAQNKWLSYYETNVGKHHSGVTYNGHWSWIYFLNDQV | not soluble |
| ITTKKGQEGKPAINVRTEFGFTAPTKRPEMINSAQWAELYNEASGTNYYSPEVIQKYRDHSDPDLYPDVDWFDALFDDMAENQRVNLSVTGGGDNIKYYVSGSFYNESSIYKNAGNIYGYNSAIRYNKFNFRANVDLNVTKSTTLNVNLANIYEKSFGPGFGDNDNDIWSYTFNASPNAFPVQYSDGTLSGPSTDSGHNPWNMLVHSGYREQFWNSAQSLIGLTQDFGKIWEPLEGLTANIKFSWDAWNTTLQRRSKSPSFYHARGRDAEGRLMYDDNNNDGEWDPVHTGSESLGYEIGRQGTMTRYLEGSLNYNRLFGNHRVGALFLYNQKIHTNTQAADGNAALPYKNQGLAGRVTYAFRDTYFAEVNMGYNGSENFARGHRFGFFPAFALGWMVSNEKWFEPLTKTIDMLKLKGSYGKVGNDDIGGQRRWVYESTIVGTGDQGWWFGQSGNQGGAGIRVGEIENLYASWEEATKLNLGVEFSLFNKVKVQADYFREERQGIFLQRAGLPAIVGLSTIPYVNIGRTLNKGFDANVEYNHQIGKVFLTARGNFTFSRNKLLDNDEPDWEYKYQNRIGKPFGSDGQMQPFGLVALGLFQSQEEIDNSPRQTFGEYRVGDIKYQDINGDGIIDTQDEVAIGYTNLPEIMYGFGLGAQWKNWDINAFFQGSAHTSFFLDGVSVKSPFSSGNMERAAINKDLWGKVWMSTNSPEQNAHVTYPRLSNGSGGAGASNNNKNSTWWLRNGSFLRLKNIEIGYTLPKEFVTKTFIKSLRFYVSGNNLLTFSSFKLWDPEKAKGSSDGSGYPLNRVVTVGFNANF | not soluble |
| IVGGYTCQENSVPYQVSLNSGYHFCGGSLINDQWVVSAAHCYKSRIQVRLGEHNINVLEGDEQFVNAAKIIKHPNFDRKTLNNNIMLIKLSSPVKLNARVATVALPSSCAPAGTQCLISGWGNTLSSGVNEPDLLQCLDAPLLPQADCEASYPGKITDNMVCVGFLEGGKDSCQGDSGGPVVCNGELQGIVSWGYGCALPDNPGVYTKVCNYVDWIQDTIAAN | soluble |
| KAFTPDEAARFYAAARADRWGWPLAFMLATGLRPGEALGLTWADVTMRGSAEGGTLAAVVHIERTRSVSGGRVYEDTPKTERGRRSLTVTGDAARLLLDARAQAEREAGARLRHNGREYQSTGYVFVTRAGTPYRPDNLRRPMARLCQAVGVPVLTPHKLRHTWASVQAAAGVPVEVLSAELGHAAPSFTRDTYRHVYESERASLTYDPLTPAAAPAPEPEPQGRKRV | not soluble |
| KDDKVASATDVQFETPLKIVEYPDPILRAKNKRIDIFDENLKNLVDAMFDVMYKTDGIGLSAPQVGLNVQLMVFNPAGEPGEGKEIVLVNPKIKKYSDKLVPFDEGCLSFPGIYAEVVRPQSVKIDARDITGERFSISLSRLPARIFQHEYDHLEGVLFFDRMTDQVLDSIREELEALEKKYEEKTGLPSPER | soluble |
| KEPEMRPLGAYDTEELIPVLDYLDQQKINYKLDGNTVSVESSEYNSIKLGMVRSGVNQATEAGDDILLQDMGFGVSQRLEQERLKLSRERQLAQAIEEMKQVRKARVLLALPKHSVFVRHNQEASASVFLTLSTGANLKQQEVDSIVDMVASAVPGMKTSRITVTDQHGRLLSSGSQDPASAARRKEQELERSQEQALREKIDSVLLPILGFGNYTAQVDIQMDFSAVEQTRKRFDPNTPSTRSEYALEDYNNGNMVAGIPGALSNQPPADASIPQDVAQMKDGSVMGQGSVRKESTRNFELDTTISHERKQTGTVARQTVSVAIKDRRQVNPDTGEVTYTPMSEGEINAIRQVLIGTVGFDQSRGDLLNVLSVKFAEPETEQLVDQPIWEHPNFND | not soluble |
| KGATFKEAEEHYHINALYLLAHSALESNWGRSKIAKDKNNFFGITAYDTTPYLSAKTFDDVDKGILGATKWIKENYIDRGRTFLGNKASGMNVEYASDPYWGEKIASVMMKINEKLGGKD | not soluble |
| KGSAFAPGITAGMGVKYKLKPRINVGIEYSFTGLLTDALDALTDKSVWLEDPYKINDSWVKNKDATGALVLRITYDFGLRKTFCNKQ | not soluble |
| KGTYLSEYANFAAALTEGKILLLADLRGFGETTDPAFYTDAKYWNREYRNAMVSMHIGRPIMGQRVVDILTLLDFCSEHEFLKGHPVKVFANGIYGPVAIHAAYLDERINSVEIKHSVKTWKEYIERPMQWDMYSNVLYGALKYYDLPDLIRLSNCPIRFAD | not soluble |
| KHLFDEIDTIDVMDVNAGDHGKKFATNFDPETNMLEIQGDSFYWENGEWKQVPCHSRMLEFEFPNCGSHKVYSMAHDEVRSMKEFIPAKRIEFWMGFGDRYLNYFNVMRDIGLLSPDPLTLHDGTVVQPLHVLKALLPDP | not soluble |
| KKEDIVRIHASSGTSGKPTVVGYTAKDIETWSDLIARSLTMIGLSKGDTIQNSMNYGLFTGGLGFHYGVERMGAMIVPAATGNTARQLEMMIDFGVTAVHCTPSYAFYLAETAEELDLIDKLSLKAAIFGGEPWSENTRKQLEKRLNLKAYDCYGLSEMFGPGVGFECQEQDGLHIW | not soluble |
| KLAYKLGIGLECPFDKIWSLQTGVSFVSKGTNHTIVETDGISAQAKVNASYLEFPVMVAARFAMDRNTYILVAAGPYGAWGIGGKTKALGYSWSSSSTPDWNTGNVVEINTFGKDGLDLRRFDYGVAIGLSVEYRHYVIGVEGRLGLCKLQKELQGKNITGFVTAGYKF | not soluble |
| KLDKIDNKNRRIRKKLFLGEFAILGFEISCETDINDFDRYDAFVDDFIDYIDTLGLCFGGGGLELFEGFLCSTERYGSATEEQKAQVVAWLEARPEVKSAKAGDLLDANY | not soluble |
